The text below walks through data of the supplement of paper PMC7877785.

± gives the uncertainty stated by the source.

The series in a line: self-splicing fitness, log relative to wild type (ln ratio); higher = more splicing; Tetrahymena group I intron in knt gene, E. coli kanamycin selection, DiMSum; sequences stand for … in CUCUCU…GGAGGGAAAAGUUAUCAGGCAUGCACCUGGUAGCUAGUCUUUAAACCAAUAGAUUGCAUCGGUUUAAAAGGCAAGACCGUCAAAUUGCGGGAAAGGGGUCAACAGCCGUUCAGUACCAAGUCUCAGGGGAAACUUUGAGAUGGCCUUGCAAAGGGUAUGGUAAUAAGCUGACGGACAUGGUCCUAACCACGCAGCCAAGUCCUAAGUCAACAGAUCUUCUGUUGAUAUGGAUGCAGUUCACAGACUAAAUGUCGGUCGGGGAAGAUGUAUUCUUCUCAUAAGAUAUAGUCGGACCUCUCCUUAAUGGGAGCUAGCGGAUGAAGUGAUGCAACACUGGAGCCGCUGGGAACUAAUUUGUAUGCGAAAGUAUAUUGAUUAGUUUUGGAGUACUCGUGGUCG
In outline: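 Six replicate transformations of E. coli BL21(DE3) with a pET-22b(+) library were grown overnight at 37°C or 30°C. The library randomised all eight P1ex-region intron nucleotides, the intron lying in the knt kanamycin-resistance gene, and plates were LB agar with or without 25 μg/mL kanamycin plus 100 μg/mL carbenicillin, 50 μM IPTG and 0.2% rhamnose. Pooled colonies were amplicon-sequenced on an Illumina HiSeq 2500, and fitness is the DiMSum error-weighted combination of wild-type-normalised replicate fold changes, kanamycin versus none.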

Turning to GACAAGCAAUAUUACGGUUU, the “self-splicing fitness (ln)” value by setting is: (30 °C) -1.79 ± 0.079; (37 °C) -0.351 ± 0.074.
Consider GUUGAGCAAUAUUACGAAGG, for which the “self-splicing fitness (ln)” value runs as follows: (30 °C) -3.35 ± 0.41; (37 °C) -2.68 ± 0.4.
For GUUCAGCAAUAUUACGAUAU the same measures were -0.361 ± 0.086 and 0.524 ± 0.097.
For the sequence GACCAGCAAUAUUACGAAGG, the “self-splicing fitness (ln)” value is, setting by setting: (30 °C) -3.3 ± 0.13; (37 °C) -2.19 ± 0.18.
For GCGUAGCAAUAUUACGUUGA, the “self-splicing fitness (ln)” value was -3.16 ± 0.33 (30 °C) and -1.94 ± 0.21 (37 °C).
For AUAUAGCAAUAUUACGUGGA the same measures were -3.57 ± 0.27 and -3.04 ± 0.26.
For AAUAAGCAAUAUUACGCGUG the same measures were -0.604 ± 0.071 and -0.455 ± 0.089.
For UCGAAGCAAUAUUACGCUCA the same measures were -2.11 ± 0.19 and -0.861 ± 0.23.
Regarding AAGUAGCAAUAUUACGAGAC, the “self-splicing fitness (ln)” value (30 °C) was -2.6 ± 0.33.
As to GAGGAGCAAUAUUACGCAGG, the “self-splicing fitness (ln)” value runs as follows: (30 °C) -1.91 ± 0.35; (37 °C) -2.08 ± 0.36.
For AUCCAGCAAUAUUACGCUCA the same measures were 0.0746 ± 0.13 and 0.8 ± 0.17.
For GCACAGCAAUAUUACGAAGG the same measures were -1.31 ± 0.065 and -0.444 ± 0.096.
For GGUGAGCAAUAUUACGGGCG the same measures were -1.39 ± 0.14 and -0.473 ± 0.14.
Consider GGGGAGCAAUAUUACGGCGG, for which the “self-splicing fitness (ln)” value (37 °C) is -0.394 ± 0.41.
For AAUCAGCAAUAUUACGUGUA, the “self-splicing fitness (ln)” value by setting is: (30 °C) -0.538 ± 0.058; (37 °C) 0.135 ± 0.068.
For GAAAAGCAAUAUUACGUAGU the same measures were -2.02 ± 0.077 and -1.75 ± 0.13.
For CUUAAGCAAUAUUACGAAGA the same measures were -2.98 ± 0.24 and -1.45 ± 0.26.
With GACGAGCAAUAUUACGGGUG, the “self-splicing fitness (ln)” value is -4.16 ± 0.31 (30 °C) and -1.89 ± 0.16 (37 °C).
CACAAGCAAUAUUACGACCU: the “self-splicing fitness (ln)” value (30 °C) is -1.71 ± 0.19 and the “self-splicing fitness (ln)” value (37 °C) was -2.1 ± 0.2.
For AAACAGCAAUAUUACGACUU the same measures were 0.0535 ± 0.066 and 0.468 ± 0.086.
For AUUUAGCAAUAUUACGGCGG the same measures were -2.31 ± 0.17 and -0.525 ± 0.17.
As to AGUAAGCAAUAUUACGUUCG, the “self-splicing fitness (ln)” value was -1.92 ± 0.14 (30 °C) and -1.17 ± 0.17 (37 °C).
As to GGCAAGCAAUAUUACGUGCA, the “self-splicing fitness (ln)” value is -0.303 ± 0.068 (30 °C) and -0.635 ± 0.074 (37 °C).
For CCGAAGCAAUAUUACGCUUU the same measures were -2.45 ± 0.15 and -3.33 ± 0.23.
For AAACAGCAAUAUUACGCACG the same measures were -1.45 ± 0.099 and -0.888 ± 0.11.
For CUUGAGCAAUAUUACGUUAG the same measures were -3.13 ± 0.2 and -1.11 ± 0.15.
As to AAAGAGCAAUAUUACGGUCU, the “self-splicing fitness (ln)” value was -2.5 ± 0.13 (30 °C) and -1.76 ± 0.14 (37 °C).
As for UCAAAGCAAUAUUACGGCCU, the “self-splicing fitness (ln)” value (37 °C) is -1.28 ± 0.17.
Regarding AUUCAGCAAUAUUACGUUGA, the “self-splicing fitness (ln)” value by setting is: (30 °C) -2.64 ± 0.1; (37 °C) -1.34 ± 0.093.
For CCACAGCAAUAUUACGGUGU the same measures were -2.98 ± 0.12 and -3.03 ± 0.2.
For GGACAGCAAUAUUACGUUUG the same measures were -0.577 ± 0.04 and -0.1 ± 0.058.
For GACGAGCAAUAUUACGUAAU the same measures were -2.61 ± 0.34 and -2.16 ± 0.17.
Turning to UCGAAGCAAUAUUACGGUGA, the “self-splicing fitness (ln)” value by setting is: (30 °C) -0.813 ± 0.077; (37 °C) 0.158 ± 0.091.
As for GACAAGCAAUAUUACGCUGU, the “self-splicing fitness (ln)” value is, setting by setting: (30 °C) -3.61 ± 0.25; (37 °C) -1.12 ± 0.2.
For CGGAAGCAAUAUUACGAAGG the same measures were -1.17 ± 0.11 and -0.983 ± 0.18.
In the case of UCCUAGCAAUAUUACGUAUU, the “self-splicing fitness (ln)” value by setting is: (30 °C) -4.31 ± 0.2; (37 °C) -2.48 ± 0.22.
On to UUUCAGCAAUAUUACGAUCG, for which the “self-splicing fitness (ln)” value reads like this: (30 °C) -0.997 ± 0.099; (37 °C) -0.152 ± 0.14.
For CAUGAGCAAUAUUACGUCGC the same measures were -3.59 ± 0.29 and -2.13 ± 0.42.
For ACCAAGCAAUAUUACGGCUG the same measures were -1.55 ± 0.068 and -0.288 ± 0.081.
For UCCAAGCAAUAUUACGUCGU the same measures were -0.899 ± 0.073 and -0.178 ± 0.085.
For the sequence ACAUAGCAAUAUUACGUAUU, the “self-splicing fitness (ln)” value runs as follows: (30 °C) -4.38 ± 0.21; (37 °C) -2.78 ± 0.23.
Take UAUUAGCAAUAUUACGGCCU: the “self-splicing fitness (ln)” value runs as follows: (30 °C) -0.879 ± 0.21; (37 °C) -0.611 ± 0.27.
For UCGGAGCAAUAUUACGUCCU the same measures were -1.79 ± 0.17 and -0.83 ± 0.25.
For AAGUAGCAAUAUUACGAAAA the same measures were -2.83 ± 0.28 and -2.14 ± 0.26.
For CAAUAGCAAUAUUACGAGCU the same measures were -4.39 ± 0.42 and -3.5 ± 0.42.
On to ACUUAGCAAUAUUACGUGAU, for which the “self-splicing fitness (ln)” value runs as follows: (30 °C) -2.53 ± 0.1; (37 °C) -1.37 ± 0.1.
For UCUCAGCAAUAUUACGGCGA the same measures were -1.13 ± 0.1 and -0.623 ± 0.11.
For AAAUAGCAAUAUUACGUCCU the same measures were -0.0903 ± 0.081 and 0.319 ± 0.1.
For UCAUAGCAAUAUUACGUAGG the same measures were -1.08 ± 0.074 and -1.56 ± 0.096.
Turning to CGCGAGCAAUAUUACGCUUA, the “self-splicing fitness (ln)” value reads like this: (30 °C) -2.27 ± 0.23; (37 °C) -1.97 ± 0.24.
For UGUUAGCAAUAUUACGGACA the same measures were -1.59 ± 0.23 and -0.73 ± 0.2.
For ACGUAGCAAUAUUACGAAAG the same measures were -3.88 ± 0.25 and -3.59 ± 0.31.
For the sequence ACUAAGCAAUAUUACGGAGC, the “self-splicing fitness (ln)” value (30 °C) was -2.87 ± 0.17 and the “self-splicing fitness (ln)” value (37 °C) is -0.628 ± 0.14.
For GAUAAGCAAUAUUACGAUAU the same measures were -1.13 ± 0.095 and -0.335 ± 0.15.
For AUUAAGCAAUAUUACGCAGG the same measures were -2.22 ± 0.19 and -0.608 ± 0.2.
As to GCAGAGCAAUAUUACGUGAC, the “self-splicing fitness (ln)” value reads like this: (30 °C) -2.91 ± 0.12; (37 °C) -1.54 ± 0.11.
For CAUCAGCAAUAUUACGCUUC the same measures were -2.2 ± 0.18 and -0.251 ± 0.12.
As to GGCAAGCAAUAUUACGGGCG, the “self-splicing fitness (ln)” value is, setting by setting: (30 °C) 0.0849 ± 0.086; (37 °C) -0.132 ± 0.096.
For AUGGAGCAAUAUUACGUGGU the same measures were -3.08 ± 0.17 and -1.35 ± 0.23.
Regarding CCUGAGCAAUAUUACGCACA, the “self-splicing fitness (ln)” value runs as follows: (30 °C) -1.53 ± 0.17; (37 °C) -1.6 ± 0.35.
In the case of UACCAGCAAUAUUACGGUUC, the “self-splicing fitness (ln)” value by setting is: (30 °C) -3.88 ± 0.18; (37 °C) -1.38 ± 0.14.
For GGAAAGCAAUAUUACGGACA the same measures were -0.913 ± 0.092 and 0.104 ± 0.097.
Turning to UAGUAGCAAUAUUACGUCGC, the “self-splicing fitness (ln)” value reads like this: (30 °C) -4.1 ± 0.43; (37 °C) -2.3 ± 0.28.
For GCCCAGCAAUAUUACGGUUA the same measures were -0.529 ± 0.054 and 0.488 ± 0.062.
For CCCUAGCAAUAUUACGAACU the same measures were -2.89 ± 0.18 and -3.56 ± 0.39.
For ACCAAGCAAUAUUACGCUAG the same measures were -2.03 ± 0.071 and -1.52 ± 0.1.
Consider GAGUAGCAAUAUUACGAGGU, for which the “self-splicing fitness (ln)” value (30 °C) was -2.24 ± 0.35.
Take CGGCAGCAAUAUUACGCUUG: the “self-splicing fitness (ln)” value (30 °C) is -2.4 ± 0.15 and the “self-splicing fitness (ln)” value (37 °C) was -2.31 ± 0.23.
For UAGGAGCAAUAUUACGUUUA the same measures were -2.18 ± 0.27 and -0.145 ± 0.17.
For ACAUAGCAAUAUUACGCGGC the same measures were -3.77 ± 0.18 and -2.8 ± 0.3.
Turning to GGUCAGCAAUAUUACGAGGU, the “self-splicing fitness (ln)” value reads like this: (30 °C) -1.01 ± 0.13; (37 °C) -1.7 ± 0.22.
On to UGAAAGCAAUAUUACGUACG, for which the “self-splicing fitness (ln)” value is, setting by setting: (30 °C) -0.177 ± 0.11; (37 °C) 0.639 ± 0.13.
As for GUUGAGCAAUAUUACGCACG, the “self-splicing fitness (ln)” value (30 °C) was -3.13 ± 0.43.
For AGUUAGCAAUAUUACGUUUA, the “self-splicing fitness (ln)” value is -2.23 ± 0.21 (30 °C) and -1.06 ± 0.21 (37 °C).
In the case of GUCCAGCAAUAUUACGUGCC, the “self-splicing fitness (ln)” value by setting is: (30 °C) -1.16 ± 0.086; (37 °C) -0.944 ± 0.11.
For GGUCAGCAAUAUUACGUCUG the same measures were -0.665 ± 0.094 and -0.321 ± 0.11.
With GUGGAGCAAUAUUACGCGAC, the “self-splicing fitness (ln)” value (30 °C) was -2.22 ± 0.48.
